Assay results reported in US20240247080A1, “GLP1/GIP/NPY2 RECEPTOR TRIPLE AGONISTS” (Boehringer Ingelheim International GmbH, priority 2022, published 2024).
Numbering of substitutions follows the chain as printed. Starred links: 1 amine or outer side, 2 acyl side, 3 side chain; linkers in the order of their positions; H or OH if unused. Non-standard residues stand in square brackets, D forms with d. Groups on a side chain read outwards from the residue. No end group written: not given here. *: point of attachment. C20 diacid = O=C(O)CCCCCCCCCCCCCCCCCCC(=O)*; γGlu = O=C(O)[C@H](CCC(=O)[*:2])N[*:1]; εLys = N[C@@H](CCCCN[*:1])C(=O)[*:2]; Aib = CC(C)(N)C(=O)O

T1: GIP receptor (human (printed as hGIPR), UniProt P48546 22-466)
T1 sequence (looked up): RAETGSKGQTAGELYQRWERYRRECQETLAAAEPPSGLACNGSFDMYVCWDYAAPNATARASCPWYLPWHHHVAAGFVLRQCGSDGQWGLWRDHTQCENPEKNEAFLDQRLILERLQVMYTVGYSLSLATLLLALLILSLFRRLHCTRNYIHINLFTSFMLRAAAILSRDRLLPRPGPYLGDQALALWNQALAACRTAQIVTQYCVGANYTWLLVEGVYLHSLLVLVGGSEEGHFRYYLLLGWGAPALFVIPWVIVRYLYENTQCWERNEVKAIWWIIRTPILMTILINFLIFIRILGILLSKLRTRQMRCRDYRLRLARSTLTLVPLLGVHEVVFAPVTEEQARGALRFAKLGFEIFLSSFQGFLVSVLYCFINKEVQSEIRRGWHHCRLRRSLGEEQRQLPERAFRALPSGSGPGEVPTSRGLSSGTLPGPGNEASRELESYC

T2: NPY2 receptor (human (printed as hNPY2R), UniProt P49146 1-381)
T2 sequence (looked up): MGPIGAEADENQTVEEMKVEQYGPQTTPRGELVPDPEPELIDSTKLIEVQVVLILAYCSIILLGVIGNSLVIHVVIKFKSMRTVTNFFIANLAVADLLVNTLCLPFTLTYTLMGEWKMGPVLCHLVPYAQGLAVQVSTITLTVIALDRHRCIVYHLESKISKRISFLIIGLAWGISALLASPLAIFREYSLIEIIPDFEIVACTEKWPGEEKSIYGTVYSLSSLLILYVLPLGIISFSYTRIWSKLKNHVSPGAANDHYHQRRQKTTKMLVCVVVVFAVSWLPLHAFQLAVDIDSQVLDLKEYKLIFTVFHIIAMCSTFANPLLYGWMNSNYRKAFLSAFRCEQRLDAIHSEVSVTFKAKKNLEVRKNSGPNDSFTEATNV

B1: Compound 189 (peptide)
peptide: Y[Aib]EGTFTSDYSI[Aib]LEKQAQ[Aib]AFVQWLIK([εLys-γGlu-γGlu-γGlu-γGlu-γGlu-C20 diacid])GGPSEYASLRHYYNWLTRQRY-NH2
modifications: also: TFA salt
B2: Compound 198 (peptide)
peptide: Y[Aib]EGTFTSDYSI[Aib]LEKQAQ[Aib]EFVEWLIKGGPSSGASLRHYYNWLTRQRY-NH2
modifications: not fully specified (residue 28); also: TFA salt
B3: Compound 204 (peptide)
peptide: Y[Aib]EGTFTSDYSI[Aib]LEKQAQ[Aib]AFVEWLIKGGPSSGASLRHYYNW[dD]TRQRY-NH2
modifications: not fully specified (residue 28); also: TFA salt
B4: Compound 206 (peptide)
peptide: Y[Aib]EGTFTSDYSI[Aib]LEKQAQ[Aib]AFVEWLIKGGPEEPASLRHYYNWLTRQRY-NH2
modifications: not fully specified (residue 28); also: TFA salt
B5: Compound 190 (peptide)
peptide: YXEGTFTSDYSIXLEKQAQXAFVEWLIKGGPSSGASLRHYYNWRTRQRY
modifications: Aib at 2, 13, 20; D-Arg at 44; K28 side chain carries C20DA-gGlu-gGlu-gGlu-gGlu-Glu-gGlu-eLys (so in the source); C-terminal amide
B6: Compound 197 (peptide)
peptide: B5 peptide with S36L, R44L
modifications: Aib at 2, 13, 20; K28 side chain carries C20DA-gGlu-gGlu-gGlu-gGlu-gGlu-gGlu-eLys; C-terminal amide
B7: Compound 196 (peptide)
peptide: B5 peptide with E24Q, S32E, S33E, R44L
modifications: Aib at 2, 13, 20; K28 side chain carries C18DA-E-E-E-E-E-E-eLys (SEQ ID NO: 643); C-terminal amide
B8: Compound 191 (peptide)
peptide: B5 peptide with R44L, Y49X
modifications: Aib at 2, 13, 20; Tle at 49; K28 side chain carries C20DA-gGlu-gGlu-gGlu-gGlu-gGlu-gGlu-eLys; C-terminal amide
B9: Compound 195 (peptide)
peptide: B5 peptide with W43L, R44L
modifications: Aib at 2, 13, 20; K28 side chain carries C20DA-gGlu-gGlu-gGlu-gGlu-gGlu-gGlu-eLys; C-terminal amide
B10: Compound 208 (peptide)
peptide: B5 peptide with R44L, Q47X
modifications: Aib at 2, 13, 20; bHGln (beta-homo-L-glutamine) at 47; K28 side chain carries C20DA-gGlu-gGlu-gGlu-gGlu-gGlu-gGlu-eLys; C-terminal amide

molecular target: GLP-1 receptor (human (printed as hGLP1R), UniProt P43220 24-463); assay: cell-based or functional assay

EC50 hGLP1R 0.5% hP (CreLuc) [nM]	EC50 hGLP1R 100% hP (CreLuc) [nM]	Binder
0.21	10.2	B1
0.47	15.8	B2
0.12	3.14	B3
0.43	17.2	B4
0.1	1.09	B5
0.31	6.06	B6
0.2	13.6	B7
0.17	2.92	B8
0.13	1.9	B9
0.11	1.51	B10

molecular target: T1, GIP receptor; assay: cell-based or functional assay

EC50 hGIPR 0.5% hP (CreLuc) [nM]	EC50 hGIPR 100% hP (CreLuc) [nM]	Binder
0.31	5.06	B1
0.26	5.01	B2
0.35	2.88	B3
0.25	2.61	B4
0.13	1.18	B5
0.43	3.61	B6
0.25	3.68	B7
0.23	2	B8
0.25	1.42	B9
0.07	0.81	B10

molecular target: T2, NPY2 receptor; assay: cell-based or functional assay

EC50 hNPY2R 0.5% hP (CreLuc) [nM]	EC50 hNPY2R 100% hP (CreLuc) [nM]	Binder
8.03	45.8	B1
13.1	69.9	B2
> 99.9	> 999	B3
13.4	61.7	B4
> 100	> 1000	B5
42.6	158	B6
25.2	152	B7
> 99.9	> 999	B8
26.1	137	B9
> 100	> 1000	B10
